Measurements taken from patent US20140011978A1 (EPFL TTO, published 2014).

B1: PDGF-BB (ligand, UniProt P01127 82-190, looked up)
chain: SLGSLTIAEPAMIAECKTRTEVFEISRRLIDRTNANFLVWPPCVEVQRCSGCCNNRNVQCRPTQVQLRPVQVRKIEIVRKKPIFKKATVTLEDHLACKCETVAAARPVT
notes: The name implies a homodimer of B chains
B2: TNC III1-5 (other)
chain: EVSPPKDLVVTEVTEETVNLAWDNEMRVTEYLVVYTPTHEGGLEMQFRVPGDQTSTIIQELEPGVEYFIRVFAILENKKSIPVSARVATYLPAPEGLKFKSIKETSVEVEWDPLDIAFETWEIIFRNMNKEDEGEITKSLRRPETSYRQTGLAPGQEYEISLHIVKNNTRGPGLKRVTTTRLDAPSQIEVKDVTDTTALITWFKPLAEIDGIELTYGIKDVPGDRTTIDLTEDENQYSIGNLKPDTEYEVSLISRRGDMSSNPAKETFTTGLDAPRNLRRVSQTDNSITLEWRNGKAAIDSYRIKYAPISGGDHAEVDVPKSQQATTKTTLTGLRPGTEYGIGVSAVKEDKESNPATINAATELDTPKDLQVSETAETSLTLLWKTPLAKFDRYRLNYSLPTGQWVGVQLPRNTTSYVLRGLEPGQEYNVLLTAEKGRHKSKPARVKASTEQAGGGSHHHHHH
notes: The secreted protein in the assays lacks the leader; also called TG-TNC III1-5; engineered TNC III1-5
B3: NT-3 (ligand, UniProt P20783 139-257, looked up)
chain: YAEHKSHRGEYSVCDSESLWVTDKSSAIDIRGHQVTVLGEIKTGNSPVKQYFYETRCKEARPVKNGCRGIDDKHWNSQCKTSQTYVRALTSENNKLVGWRWIRIDTSCVCALSRKIGRT

How the values were obtained:
[1] = target: T1, BSA (bovine, UniProt P02769); test: ELISA: GST-fused TNC domains, GST and BSA coated, 2 nM PDGF-BB in solution, anti-PDGF-BB antibody and HRP secondary, A450
T1 construct: negative control; also called bovine serum albumin
Protocol: An ELISA was performed to test the affinity of different domains present in TNC1-5 to PDGF-BB as an example cytokine that has shown to bind TNC III1-5. Domain TNC III5 was defined to be responsible for cytokine binding. Method: ELISA plates were coated with individual TNC domains fused to GST, as well as GST and BSA. Wells were blocked with BSA and then incubated with 2 nM PDGF-BB. Binding of PDGF-BB was detected using an anti-PDGF-BB antibody and then a secondary horseradish peroxidase conjugated antibody.

[2] = target: B2; test: SPR, TNC III1-5 on the chip, cytokine injected, BSA reference channel
Protocol: (§1) Surface plasmon resonance (SPR) was done to quantify the affinity of specific cytokines to TNC III1-5. […] Method: Surface plasmon resonance chips were functionalized with TNC III1-5 or BSA and cytokines were injected over the chips at different concentrations. The chips contained gold with free carboxyl groups that were activated to bind TNC III1-5 in one channel and BSA as a reference protein in another channel. The specific response of a cytokine to TNC III1-5 (in RU) was obtained relative to the response to BSA. Results are depicted in FIG. 5.

[3] = target: B2; test: SPR: TNC III1-5 on the chip, BSA in the reference channel, cytokine injected at rising concentrations; Langmuir fit (legend paragraph 11 says TNC III5, Example 5 paragraph 115 says TNC III1-5)
Protocol: as §1

[4] = target: HGF (UniProt P14210 32-728); test: ELISA: cytokine coated (50 nM), 100 nM TNC III1-5 in solution, HRP-anti-His, A450; black bars without, white bars with 4 µM heparin
Protocol: (§2) ELISA plates were coated with cytokines or BSA and further incubated with TNC III1-5 to analyze binding of TNC III1-5 to a wide variety of cytokines. […] A large amount of heparin (4 μM) impaired binding of TNC III1-5 to these cytokines. Results are depicted in FIG. 3. Method: 50 nM of cytokine was coated for (1 hr, 37° C.). After blocking with 2% BSA (1 hr, RT). 100 nM TNC III1-5 was applied in PBST (0.05% tween, 0.1% bovine serum albumin (BSA)) (1 hr, RT). TNC III1-5 was detected with horseradish peroxidase (HRP)-anti-HIS in PBST (1 hr, RT) and developed with 3,3′,5,5′-tetramethylbenzidine (TMB), a soluble colorimetric HRP […]. Addition of sulfuric acid stop solution changes the color to yellow, enabling accurate measurement of the intensity at 450 nm using a spectrophotometer or plate reader. […] Heparin (4 μM) was added to TNC III1-5 to test the effect of blocking the heparin binding site of TNC III1-5, which has been defined as domain TNC III5 (Weber, Zimmermann, et al., 1995).

[5] = target: T1, BSA; test: ELISA: PDGF-BB or BSA coated, TNC III1-5 in solution at 0 to 1.2 µM, A450
Protocol: as §2, with “100 nM TNC III1-5 was applied in PBST (0.05% tween, 0.1% bovine serum albumin (BSA)) (1 hr, RT).” left out

[6] = target: FGF-9; test: ELISA: cytokine coated (50 nM), 100 nM TNC III1-5 in solution, HRP-anti-His, A450
Protocol: as §2

T1 sequence (P02769 25-607 limits assumed): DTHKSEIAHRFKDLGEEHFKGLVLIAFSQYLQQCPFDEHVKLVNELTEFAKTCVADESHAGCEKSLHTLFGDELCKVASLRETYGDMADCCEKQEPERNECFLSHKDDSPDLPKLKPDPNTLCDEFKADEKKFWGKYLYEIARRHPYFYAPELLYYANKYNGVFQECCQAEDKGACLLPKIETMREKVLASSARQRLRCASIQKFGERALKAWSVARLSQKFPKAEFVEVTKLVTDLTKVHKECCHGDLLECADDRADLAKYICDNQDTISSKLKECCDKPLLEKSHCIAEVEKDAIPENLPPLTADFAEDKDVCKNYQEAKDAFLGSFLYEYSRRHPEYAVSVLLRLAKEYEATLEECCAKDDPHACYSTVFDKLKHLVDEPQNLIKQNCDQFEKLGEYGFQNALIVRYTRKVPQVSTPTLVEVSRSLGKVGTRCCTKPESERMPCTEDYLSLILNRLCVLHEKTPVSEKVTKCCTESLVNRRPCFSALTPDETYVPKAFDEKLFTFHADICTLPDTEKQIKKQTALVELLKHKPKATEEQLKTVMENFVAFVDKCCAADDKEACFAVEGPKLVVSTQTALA
Sequence of HGF (P14210 32-728 limits assumed): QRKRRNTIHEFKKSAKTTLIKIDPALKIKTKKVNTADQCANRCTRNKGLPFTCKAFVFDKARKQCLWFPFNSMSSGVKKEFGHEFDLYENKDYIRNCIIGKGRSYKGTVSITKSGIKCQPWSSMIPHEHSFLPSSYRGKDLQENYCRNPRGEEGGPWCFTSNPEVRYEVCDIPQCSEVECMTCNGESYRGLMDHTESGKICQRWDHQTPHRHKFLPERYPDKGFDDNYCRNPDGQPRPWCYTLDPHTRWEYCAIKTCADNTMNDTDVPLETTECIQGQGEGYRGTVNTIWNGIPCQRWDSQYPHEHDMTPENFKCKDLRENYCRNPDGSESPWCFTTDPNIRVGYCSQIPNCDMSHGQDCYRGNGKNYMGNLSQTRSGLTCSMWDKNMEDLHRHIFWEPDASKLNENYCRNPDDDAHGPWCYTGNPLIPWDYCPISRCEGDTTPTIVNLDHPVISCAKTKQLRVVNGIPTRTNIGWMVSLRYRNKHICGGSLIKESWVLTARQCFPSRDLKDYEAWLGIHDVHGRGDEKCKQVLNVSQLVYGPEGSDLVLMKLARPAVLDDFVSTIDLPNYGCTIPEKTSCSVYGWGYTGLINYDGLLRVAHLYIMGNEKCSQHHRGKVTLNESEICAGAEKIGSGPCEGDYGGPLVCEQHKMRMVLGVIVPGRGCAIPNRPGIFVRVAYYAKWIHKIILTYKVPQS

Binder	binding result [1]	Kd [2] [nM]	koff [3] [s⁻¹]	kon [3] [M⁻¹ s⁻¹]	binding result [4]	binding result [5]	binding result [6]
B1	no binding (tested: 2 nM PDGF-BB)	3.9	0.0202	5.23e+06	–	–	–
B2	–	–	–	–	binds	no binding (tested: 1.2 µM)	no binding (tested: 100 nM)
B3	–	21	0.00106	50700	–	–	–
